Source: patent US7314724B2, “Therapeutic applications of laminin and laminin-derived protein fragments” (University of Washington, priority 1996, dated 2008)
“Also recorded” adds a separate entry of the source.

How the values were obtained:
[1] = biological target: T1, islet amyloid polypeptide (amylin) (Homo sapiens, UniProt P10997); assay: Thioflavin T fluorometry, islet amyloid polypeptide (amylin) fibril formation; type: biochemical
T1 construct: The major protein in islet amyloid is a 37 amino acid peptide, termed islet amyloid polypeptide or amylin
T1 sequence (P10997 34-70): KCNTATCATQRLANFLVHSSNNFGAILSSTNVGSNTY

[2] = biological target: T2, pre-formed Aβ (1-40) amyloid fibrils (Homo sapiens, UniProt P05067); assay: Thioflavin T fluorometry, dissolution of pre-formed Aβ (1-40) amyloid fibrils; type: biochemical; conditions: for dissolution of pre-formed Aβ amyloid fibrils: 25 μM fibrillized Aβ, 4 day incubation; for dose dependence of dissolution of pre-formed Aβ amyloid fibrils, in words: 16-125 nM laminin, 4 day incubation (FIG. 5)
T2 construct: 2 μg of Aβ (1-40)(Bachem Inc., Torrance, Calif. USA; Lot #WM365); purchased Bachem Inc., Torrance, Calif; Lot #WM365
Procedure: For this study, 1 mg of Aβ (1-40)(Bachem Inc., Torrance, Calif., USA; Lot #WM365) was dissolved in 1.0 ml of double distilled water (1 mg/ml solution) and then incubated at 37° C. for 1 week. 25 μM of fibrillized Aβ was then incubated at 37° C. in the presence or absence of laminin (from EHS tumor; Sigma Chemical Company, St. Louis, Mo., USA) at concentrations of 125 nM, 63 nM, 31 nM and 16 nM containing 150 mM Tris HCl, 10 mM NaCl, pH 7.0. Following a 4 day incubation, 50 μl aliquots were added to 1.2 ml of 100 μM Thioflavin T (Sigma Chemical Co., St. Louis, Mo.) in 50 mM NaPO4 (pH 6.0) for fluorometry readings as described in example 2.

Aβ (1-40) = biological target: T3, Aβ (1-40) (Homo sapiens, UniProt P05067); assay: Solid phase binding immunoassay of laminin to substrate bound Aβ (1-40); conditions: one-site model, single binding constant; read-out: apparent dissociation constant Kd, binding to immobilized Aβ (1-40)
T3 construct: 2 μg of Aβ (1-40)(Bachem Inc., Torrance, Calif. USA; Lot #WM365); purchased Bachem Inc., Torrance, Calif; Lot #WM365
Procedure: 2 μg of Aβ (1-40)(Bachem Inc., Torrance, Calif. USA; Lot #WM365) in 40 μl of Tris-buffered saline (TBS)(pH 7.0) was allowed to bind overnight at 4° C. to microtiter wells (Nunc plates, Maxisorb). The next day all of the microtiter wells were blocked by incubating with 300 μl of Tris-buffered saline containing 100 mM Tris-HCl, 50 MM NaCl, 0.05% Tween-20, and 3 mM NaN3 (pH 7.4)(TTBS) plus 2% bovine serum albumin (BSA). Various dilutions (ie. 1:10, 1:30, 1:90, 1:270, 1:810, 1:2430 and 1:7290) of Engelbreth-Holm-Swarm (EHS) mouse tumor laminin (1 mg/ml)(Sigma Chemical Co., St. Louis, Mo., USA) in 250 μl of TBS (pH 7.4) were placed in wells (in triplicate) either containing substrate bound Aβ (1-40) or blank, and allowed to bind overnight at 4° C. overnight. […] The reaction was stopped with 50 μl of 4N H2SO4 and read on a Model 450 microplate reader (Biorad, Hercules, Calif. USA) at 490 nm. Data points representing a mean of triplicate determinations were plotted and the affinity constants (ie. Kd) were determined using Ultrafit (version 2.1, Biosoft, Cambridge, U.K.) as described below.
The binding data were analyzed assuming a thermodynamic equilibrium for the formation of the complex BL, from the laminin ligand in solution, L, and the uncomplexed Aβ adsorbed to the microtiter well, B, according to the equation: Kd=[B]×[L]/[BL]. […]

T2 sequence (P05067 672-711 limits assumed): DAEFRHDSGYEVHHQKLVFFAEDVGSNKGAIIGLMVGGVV
T3 sequence (P05067 672-711 limits assumed): as above

laminin: Engelbreth-Holm-Swarm (EHS) mouse tumor laminin (Sigma); 850 kDa basement membrane glycoprotein of A, B1 and B2 chains
inhibition of amylin fibrillogenesis, in words ([1]; 40 nM, 15 nM and 5 nM laminin, 1 week (FIG. 6)): no significant inhibition | inhibition of amylin fibril formation, in words ([1]; 100 nM laminin, all time points within 1 week (FIG. 6)): did not significantly inhibit; also recorded: does not significantly inhibit | dissolution of pre-formed Aβ amyloid fibrils ([2]; 16 nM laminin): 25% | dissolution of pre-formed Aβ amyloid fibrils ([2]; 31 nM laminin): 28% | dissolution of pre-formed Aβ amyloid fibrils ([2]; 63 nM laminin): 39% | dissolution of pre-formed Aβ amyloid fibrils ([2]; 125 nM laminin): 41% | dose dependence of dissolution of pre-formed Aβ amyloid fibrils, in words [2]: dissolution of pre-formed Alzheimer's disease amyloid fibrils in a dose-dependent manner | dose dependence of dissolution of pre-formed Aβ amyloid fibrils, in words ([2]; listed as Laminin): dose-dependent manner | Kd (Aβ (1-40)): 2.7 nM
